From US12465660B2, “Compositions and methods for cancer imaging and radiotherapy” (VECT-HORUS, priority 2017, dated 2025)
Positions of bridges follow the written chain, without caps; N, C: chain ends. Non-standard residues stand in square brackets, D forms with d. Primed or numbered codes have the meaning given here. No end group written: not given here. *: point of attachment. DOTA = O=C(O)CN1CCN(CC(=O)O)CCN(CC(=O)*)CCN(CC(=O)O)CC1; NODAGA′ = not defined here; PEG12′ = not defined here; βAla = NCCC(=O)O

Assays:
[1] = target: T1, Recombinant human LDLR (His-tagged) (Homo sapiens, UniProt P01130); test: SPR affinity of MG04/VH-DO35, CH44, FG770, CH40 and FG769 for LDLR (Biacore T200); assay type: binding; settings: 25° C.
T1 construct: purchased Sino Biological (Beijing, China)
T1 sequence (P01130 22-860): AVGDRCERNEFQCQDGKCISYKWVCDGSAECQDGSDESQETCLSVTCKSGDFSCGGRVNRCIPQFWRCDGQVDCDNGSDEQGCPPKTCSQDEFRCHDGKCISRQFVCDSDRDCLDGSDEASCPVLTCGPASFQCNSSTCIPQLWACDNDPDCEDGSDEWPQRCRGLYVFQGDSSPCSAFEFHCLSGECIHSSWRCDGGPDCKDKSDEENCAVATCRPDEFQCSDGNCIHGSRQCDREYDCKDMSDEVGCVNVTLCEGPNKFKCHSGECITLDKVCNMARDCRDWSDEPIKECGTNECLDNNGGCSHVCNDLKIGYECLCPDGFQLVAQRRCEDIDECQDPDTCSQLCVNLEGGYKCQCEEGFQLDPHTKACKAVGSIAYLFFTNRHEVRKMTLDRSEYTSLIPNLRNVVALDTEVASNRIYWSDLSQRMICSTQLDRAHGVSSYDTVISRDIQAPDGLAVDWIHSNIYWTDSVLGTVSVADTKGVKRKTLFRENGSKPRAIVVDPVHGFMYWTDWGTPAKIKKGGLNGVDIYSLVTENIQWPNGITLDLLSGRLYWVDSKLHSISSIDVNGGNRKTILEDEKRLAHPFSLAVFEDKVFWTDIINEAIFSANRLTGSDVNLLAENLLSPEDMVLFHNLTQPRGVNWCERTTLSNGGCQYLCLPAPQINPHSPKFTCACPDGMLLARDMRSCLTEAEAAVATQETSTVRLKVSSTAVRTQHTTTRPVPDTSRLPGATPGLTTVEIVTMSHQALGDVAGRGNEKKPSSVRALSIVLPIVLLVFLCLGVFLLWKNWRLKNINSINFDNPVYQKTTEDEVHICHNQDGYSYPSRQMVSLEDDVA
Experimental: (§1) Recombinant human LDLR (His-tagged) was purchased from Sino Biological (Beijing, China). Interaction of conjugates with LDLR was tested at 25° C. using a Biacore T200 (GE Healthcare) and 50 mM HEPES-NaOH pH7.4, 150 mM NaCl, 0.005% Tween-20, 50 μM EDTA as running buffer. hLDLR was immobilized on a NiHC sensor chip (Xantec, Dusseldorf, Germany) at a density of 35-60 fmol/mm^2. Binding of conjugates to LDLR-coated flow cells was corrected for non-specific binding to uncoated flow cells. The single-cycle kinetic method was used to measure the affinity of ligands with LDLR. Ligands were diluted in running buffer and injected sequentially 2 minutes at 30 μl/min using increasing concentrations. Blank run injections of running buffer were performed in the same conditions before ligand injection. Double-subtracted sensorgrams were globally fitted with the 1:1 Langmuir binding model from Biacore T200 Evaluation version 2.0.

CHO-hLDLR-GFP cells = test: Binding/endocytosis of fluorescent conjugates by LDLR expressing cells (confocal microscopy); assay type: cell-based, Chinese Hamster; settings: live cells, 1 hour at 37° C.
Excerpt: In these experiments, with regards to FIG. 2, the LDLR-GFP signal is visualized in column 2, the conjugate signal is either directly visualized in column 4 using the A680 fluorescence or in column 3 using an anti-hFc-A594 conjugated secondary antibody. Cell nuclei were stained in blue with Hoechst and its signal can be visualized in column 1. The co-labelling of LDLR-GFP and conjugates can be visualized as a highlight signal in column 5 on the merge image.

[2] = target: T1, Recombinant human LDLR (His-tagged); test: SPR affinity of conjugates A, B, C and D for LDLR (Biacore T200); assay type: binding; settings: 25° C.
Experimental: as §1

| Substance | KD [1] | binding to and endocytosis by CHO-hLDLR-GFP cells (CHO-hLDLR-GFP cells) | KD [2] |
| --- | --- | --- | --- |
| DOTA-βAla-PEG12-SEQ ID NO: 13-NH2 ({DOTA-βAla-PEG12′}-[dC]RPLGRMC-NH2; disulfide 1-8) [FG769, scrambled counterpart of FG770] | No Binding | – | – |
| Fc-Peptide D-A680 (CRMLGRPC; cysteine pairing not given here; also: fused to a dimerising Fc or GST) [Conjugate D, control] | – | are not | No Binding |
| NODAGA-βAla-PEG12-SEQ ID NO: 13-NH2 ({NODAGA′-βAla-PEG12′}-[dC]RPLGRMC-NH2; disulfide 1-8) [CH40, scrambled counterpart of CH44] | No Binding | – | – |
